Measured values published in patent US20200317802A1 (Merck KGaA, published 2020).

T1: recombinant human ADAMTS5 (R&D Systems cat #2198-AD) (human, UniProt Q9UNA0 262-622, limits assumed)
T1 sequence: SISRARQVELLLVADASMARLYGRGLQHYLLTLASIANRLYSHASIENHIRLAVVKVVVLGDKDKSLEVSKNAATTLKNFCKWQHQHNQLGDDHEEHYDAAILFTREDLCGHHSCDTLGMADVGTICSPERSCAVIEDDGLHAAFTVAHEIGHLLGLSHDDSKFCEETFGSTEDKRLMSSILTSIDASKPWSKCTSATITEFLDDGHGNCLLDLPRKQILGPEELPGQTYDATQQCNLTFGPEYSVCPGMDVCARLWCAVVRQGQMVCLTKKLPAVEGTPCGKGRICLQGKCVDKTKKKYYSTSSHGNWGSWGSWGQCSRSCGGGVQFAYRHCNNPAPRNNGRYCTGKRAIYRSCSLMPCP

T2: guinea pig recombinant ADAMTS5 (guinea pig)
T2 construct: in house, HEK293, His tag in the entry
T2 chain: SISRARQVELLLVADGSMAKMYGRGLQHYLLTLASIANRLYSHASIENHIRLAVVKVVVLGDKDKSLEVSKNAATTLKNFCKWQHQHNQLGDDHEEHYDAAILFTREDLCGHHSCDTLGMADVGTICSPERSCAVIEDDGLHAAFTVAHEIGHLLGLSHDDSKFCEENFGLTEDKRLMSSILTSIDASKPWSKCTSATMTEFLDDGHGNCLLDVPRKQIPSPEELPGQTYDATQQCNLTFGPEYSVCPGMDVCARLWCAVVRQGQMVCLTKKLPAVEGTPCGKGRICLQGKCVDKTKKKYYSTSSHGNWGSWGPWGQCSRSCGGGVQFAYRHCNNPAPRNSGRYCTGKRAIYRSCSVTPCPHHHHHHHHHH

T3: cynomolgus monkey recombinant ADAMTS5 (cynomolgus monkey, UniProt Q9UNA0 262-622 (human entry), limits assumed)
T3 construct: in house, HEK293, His tag in the entry; also called cyno ADAMTS5
T3 chain: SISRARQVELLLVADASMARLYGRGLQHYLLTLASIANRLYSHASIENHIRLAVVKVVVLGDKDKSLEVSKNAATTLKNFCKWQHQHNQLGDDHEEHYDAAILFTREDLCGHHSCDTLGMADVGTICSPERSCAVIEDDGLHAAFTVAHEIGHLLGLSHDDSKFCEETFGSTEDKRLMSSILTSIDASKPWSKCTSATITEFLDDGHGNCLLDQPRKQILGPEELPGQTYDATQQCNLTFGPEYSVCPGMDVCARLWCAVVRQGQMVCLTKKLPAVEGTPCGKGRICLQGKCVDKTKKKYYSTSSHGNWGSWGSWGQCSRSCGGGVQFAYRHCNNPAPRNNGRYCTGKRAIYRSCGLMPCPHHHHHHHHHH

T4: mouse recombinant ADAMTS5 (mouse, UniProt Q9R001 262-622, limits assumed)
T4 construct: in house, HEK293, His tag in the entry
T4 sequence: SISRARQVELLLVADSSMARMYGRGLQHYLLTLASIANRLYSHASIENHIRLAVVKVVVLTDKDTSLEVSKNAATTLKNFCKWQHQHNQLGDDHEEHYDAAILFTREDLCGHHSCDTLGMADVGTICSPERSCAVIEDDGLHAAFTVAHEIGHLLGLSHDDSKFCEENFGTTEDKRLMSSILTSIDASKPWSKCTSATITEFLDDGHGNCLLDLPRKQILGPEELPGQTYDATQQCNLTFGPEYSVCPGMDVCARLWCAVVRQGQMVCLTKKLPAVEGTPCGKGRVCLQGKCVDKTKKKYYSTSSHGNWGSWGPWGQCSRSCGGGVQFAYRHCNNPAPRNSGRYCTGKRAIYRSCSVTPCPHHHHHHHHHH


Legend:
[1] = biological target: T1, recombinant human ADAMTS5 (R&D Systems …); assay: cell-based or functional assay
[2] = biological target: T1, recombinant human ADAMTS5 (R&D Systems …); assay: SPR off-rate, Biacore T100, ADAMTS5 immobilised, experiment 1
Method: (§1) Species cross-reactivity was initially evaluated via SPR-based off-rate analysis on a Biacore T100 instrument. Nanobodies were tested for binding to human, cynomolgus monkey (“cyno”), guinea pig, mouse, and bovine ADAMTS5. To this end, recombinant ADAMTS5 was immobilized onto a CM5 chip via amine coupling using EDC and NHS. Purified Nanobodies were injected for 2 minutes at a concentration of 100 nM and allowed to dissociate for 15 min at a flow rate of 45 ul/min. Off-rate for each individual Nanobody was determined by fitting a 1:1 interaction model (Langmuir model) onto the individual dissociation curves using the BIA Evaluation software. As a reference, off-rates on human ADAMTS5 were determined in each experiment.

[3] = biological target: T2, guinea pig recombinant ADAMTS5; assay: as above
Method: as §1

[4] = biological target: T3, cynomolgus monkey recombinant ADAMTS5; assay: as above
Method: as §1

[5] = biological target: T1, recombinant human ADAMTS5 (R&D Systems …); assay: cell-based or functional assay; remark: listed apart in the source
[6] = biological target: T2, guinea pig recombinant ADAMTS5; assay: cell-based or functional assay
[7] = biological target: T3, cynomolgus monkey recombinant ADAMTS5; assay: cell-based or functional assay
[8] = biological target: T1, recombinant human ADAMTS5 (R&D Systems …); assay: cell-based or functional assay; remark: listed apart in the source
[9] = biological target: T1, recombinant human ADAMTS5 (R&D Systems …); assay: SPR off-rate, Biacore T100, ADAMTS5 immobilised, experiment 3
Method: as §1

[10] = biological target: T1, recombinant human ADAMTS5 (R&D Systems …); assay: SPR off-rate, Biacore T100, ADAMTS5 immobilised, experiment 2
Method: as §1

[11] = biological target: T4, mouse recombinant ADAMTS5; assay: as above
Method: as §1

[12] = biological target: T1, recombinant human ADAMTS5 (R&D Systems …); assay: cell-based or functional assay; remark: listed apart in the source
[13] = biological target: T1, recombinant human ADAMTS5 (R&D Systems …); assay: binding ELISA, periplasmic extract on coated human ADAMTS5
Method: In a first step, periplasmic extracts were tested for binding to recombinant human ADAMTS5 by binding ELISA. In brief, recombinant human ADAMTS5 (R&D Systems, Minneapolis, US; cat #2198-AD) at a concentration of 1 μg/ml was coated on 384-well MaxiSorp plates (Nunc, Wiesbaden, Germany). Wells were blocked with a casein solution (1%). After addition of a 10-fold dilution of the periplasmic extracts, Nanobody binding was detected using a mouse anti-Flag-HRP conjugate (Sigma, St. Louis, US) and a subsequent enzymatic reaction in the presence of the substrate esTMB (3,3′,5,5′-tetramentylbenzidine) (SDT, Brussels, Belgium). Clones showing ELISA signals higher than the sum of the average signal of the irrelevant Nanobody controls and 3 times the standard deviation of the irrelevant Nanobody controls were considered to encode positive human ADAMTS5 binding Nanobodies.

[14] = biological target: T1, recombinant human ADAMTS5 (R&D Systems …); assay: cell-based or functional assay; remark: listed apart in the source

| Binder | AlphaLISA IC50, - HSA [1] [pM] | koff [2] [s⁻¹] | koff [3] [s⁻¹] | koff [4] [s⁻¹] | AlphaLISA potency IC50, Human [5] [pM] | AlphaLISA potency IC50, Guinea pig [6] [pM] | AlphaLISA potency IC50, Cyno [7] [pM] | Human AlphaLISA % inhibition [8] [%] | Human AlphaLISA IC50 [8] [pM] | koff [9] [s⁻¹] | koff [10] [s⁻¹] | koff [11] [s⁻¹] | FRET assay % inh, periplasmic extract [12] [%] | FRET assay vi (U/min), periplasmic extract [12] [U/min] | binding ELISA (OD 450 nm) [13] [OD 450 nm] | AlphaLISA IC50, Exp 1 [14] [pM] | AlphaLISA IC50, Exp 2 [14] [pM] | AlphaLISA IC50, Exp 3 [14] [pM] | AlphaLISA IC50, Exp 4 [14] [pM] |
| --- | --- | --- | --- | --- | --- | --- | --- | --- | --- | --- | --- | --- | --- | --- | --- | --- | --- | --- | --- |
| Nanobody 9D03 (VHH, tagged as tested (anti-Flag detection, IMAC); also called 09D03; 9D3) VHH: EVQLVESGGGLVQSGGSLRLSCAASGSAVSVNAMAWYRQAPGKQRDFVAGISRSAGRTYYTDSVKDRFTIARDSAKNTVYLQMNRLKPEDTAVYYCAADLDPNRIFSRDEAAYWGQGTLVTVSS | 110 | 0.00098 | 0.001 | 0.00092 | 110 | 130 | 120 | 100 | 110 | 0.0014 | 0.0012 | 0.0037 | 110 | -2 |  |  |  |  |  |
| Nanobody 2D07 (VHH, tagged as tested (anti-Flag detection, IMAC); also called 02D07; 2D7) VHH: EVQLVESGGGLVQAGGSLRLSCSFSGPGRTFARYAMGWFRQAPGKNRDFITGISGSGDSTYYVYPMKDRFTISRDNAKNMVYLQMNALKPEDTAVYYCAADREINRIANDKELDFWGQGTLVTVSS | 190 | 0.0011 | 0.0011 | 0.00098 | 190 | 360 | 150 | 100 | 190 | 0.001 | 0.00094 | 0.0018 | 104 | -1 | 1.55 |  |  |  |  |
| Nanobody 11B06 (VHH, tagged as tested (anti-Flag detection, IMAC)) VHH: EVQLVESGGGLVQAGGSLRLSCAASGLTFRRNAMGWFRQAPGKERELLAGINWSGGTTYYVDSVKGRFTISRDNAKNTVDLQMISPKPEDTAVYYCAADGDIGTLVNDENPRYWGQGTLVTVSS |  | 0.00017 | 0.00017 | 0.00014 | 100 | 350 | 120 | 100 | 100 | 0.00038 | 0.00027 | 0.00053 | 106 | -1 |  |  |  |  |  |
| Nanobody 3D01 (VHH, tagged as tested (anti-Flag detection, IMAC); also called 03D01) VHH: EVQLVESGGGLVQAGGSLRLSCAPSGFTFSPYYMGWFRQAPGKERDFVAAISRSRGTTYYLDSTEGRFTISRDNANDTVYLQMNSLNPEDTAVYYCAAGRSPGDPSRTYLYDYWGQGTLVTVSS |  | 0.00023 | 0.00027 | 0.0002 | 390 | 350 | 220 | 96 | 390 | 0.00046 | 0.00032 | 0.00064 | 111 | -2 | 2.57 |  |  |  |  |
| monovalent Nanobody 2F3^SO (2F3*) (VHH) VHH: DVQLVESGGGVVQPGGSLRLSCAASGRTVSSYAMGWFRQAPGKEREFVAGISRSAERTYYVDSLKGRFTISRDNSKNTVYLQMNSLRPEDTALYYCAADLDPNRIFSREEYAYWGQGTLVTVSS |  |  |  |  |  |  |  |  |  |  |  |  |  |  |  | 200 | 270 | 190 | 440 |
| Nanobody 3B02 (VHH, tagged as tested (anti-Flag detection, IMAC); also called 03B02; 3B2) VHH: EVQLVESGGGFVQAGGSLRLSCVASRRTISSGTMGWFRQAPGKEREFVAAIRWSSGMPYYLDSVMDRFTISRDNAKNTVSLQMNSLQPEDTAVYYCAADRSAFRDPSFDVNYEYWGRGTLVTVSS | 300 | 0.00073 | 0.001 | 0.00074 | 300 | 460 | 190 | 100 | 300 | 0.0012 | 0.00085 | 0.002 | 105 | -1 | 2.57 |  |  |  |  |
